Numbered stars: 1 amine (or outer) side, 2 acyl side, 3 side chain; on linkers, the order of the positions; unused ones are H or OH. Square brackets hold non-standard residues; d marks the D form. Ends that are not written are not given here. Ahppa(3S,4S) = O=C(C[C@H](O)[C@H](Cc1ccccc1)N[*:1])[*:2]; ACHPA = O=C(C[C@H](O)[C@H](CC1CCCCC1)N[*:1])[*:2]; Sta = CC(C)C[C@H](N)[C@@H](O)CC(=O)O; Phg = N[C@H](C(=O)O)c1ccccc1; Nle = CCCC[C@H](N)C(=O)O; norSta = nor-statine
The binders below were run against T1, β-secretase (enzyme preparation not stated for the inhibitor assays) (human, UniProt P56817 46-501, limits assumed) (assay: cell-based or functional assay).
T1 sequence (P56817 46-501 limits assumed): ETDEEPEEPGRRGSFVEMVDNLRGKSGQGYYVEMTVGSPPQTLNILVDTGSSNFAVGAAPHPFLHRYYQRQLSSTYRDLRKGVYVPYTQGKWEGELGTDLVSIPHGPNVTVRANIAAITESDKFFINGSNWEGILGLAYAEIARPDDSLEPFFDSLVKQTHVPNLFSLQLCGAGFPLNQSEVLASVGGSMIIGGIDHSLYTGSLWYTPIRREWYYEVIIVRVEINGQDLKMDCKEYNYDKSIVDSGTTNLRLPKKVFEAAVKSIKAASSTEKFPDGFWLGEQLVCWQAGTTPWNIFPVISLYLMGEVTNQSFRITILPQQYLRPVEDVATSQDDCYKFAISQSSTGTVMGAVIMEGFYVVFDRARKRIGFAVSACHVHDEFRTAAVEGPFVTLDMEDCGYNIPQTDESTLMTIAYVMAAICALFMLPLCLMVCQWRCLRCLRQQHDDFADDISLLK

Q: For KTEEISEVN[Sta]VAEF [P10-P4′staD→V], which “inhibitor potency relative to the valine substitution alone” value is on record?
A: The value was roughly 100 times.

Target: T1, β-secretase (enzyme preparation not …)
Assay: cell-based or functional assay
Remark: another data set of the same source

Q: With H-VM[ACHPA]VAEF [heptamer peptide 7Q ((NH2)Val-Met-acha-Val-Ala-Glu-Phe)] as the binder, how does the “IC50 Group, MBP C125 assay (Group II: =1<10 µM)” value read?
A: The value was less than 10 µM.

Q: How did the “IC50 Group, MBP C125 assay (Group I: IC50 of <µm [sic])” value turn out when Ac-V[Phg][Sta]VAEF [heptamer peptide 7G (Ac-Val-Phg-Sta-Val-Ala-Glu-Phe)] was run?
A: The value was less than 1 µM.

Q: With Ac-VN[Sta]VAEF [heptamer peptide 7I (Ac-Val-Asn-Sta-Val-Ala-Glu-Phe)] as the binder, how does the “IC50 Group, MBP C125 assay (Group II: =1<10 µM)” value read?
A: The value was less than 10 µM.

Q: Ac-VF[Sta]VAEF [heptamer peptide 7J (Ac-Val-Phe-Sta-Val-Ala-Glu-Phe)] was tested. Which “IC50 Group, MBP C125 assay (Group II: =1<10 µM)” value did it give?
A: The value was less than 10 µM.

Q: How did the “IC50 Group, MBP C125 assay (Group I: IC50 of <µm [sic])” value turn out when Ac-VM[Sta]VAEF [heptamer peptide 7B (Ac-Val-Met-Sta-Val-Ala-Glu-Phe)] was run?
A: Its value is less than 1 µM.

Q: How did the “IC50 Group, MBP C125 assay (Group I: IC50 of <µm [sic])” value turn out when Ac-V[Nle][Sta]VAEF [heptamer peptide 7H (Ac-Val-nLeu-Sta-Val-Ala-Glu-Phe)] was run?
A: The value was less than 1 µM.

Q: Which “IC50 Group, MBP C125 assay (Group I: IC50 of <µm [sic])” value does the source give for Ac-VM[Ahppa(3S,4S)]VAEF [heptamer peptide 7O (Ac-Val-Met-pheSta-Val-Ala-Glu-Phe)] here?
A: The value was less than 1 µM.

Q: How did the “IC50 Group, MBP C125 assay (Group II: =1<10 µM)” value turn out when Ac-VM[norSta]VAEF [heptamer peptide 7P (Ac-Val-Met-norSta-Val-Ala-Glu-Phe)] was run?
A: The value was less than 10 µM.
